Measured values from the DeepSol protein solubility set.

experiment: soluble on expression in E. coli; label from the status in PepcDB or PDB records

| Sequence | soluble on expression in E. coli |
| --- | --- |
| MIRWFRNFGALFKKPRGAGLMKNEQTHNLQRVVQNDITCPEEQRSTGGKGGGGGSHGGHGGSHGGSHGGHGSHGGSYGGHSGHGRSFSTSSGSSGYRGLSSGSTNTSYSKSTPRTNSGYSTGKTTKTASSSRNYSNTSSTRSTTKPSKSSYSKRSTKSTKSLNYSSSSLGSKSIEKSRRSSRKSGSRQDSVASRRQLRSVSSKPQKKYVATDMPSTVSTGRSRGRSVYRRNNVNADVSQRQSRSMSVSRGRSRNRSQNRERSPSIEKSTRSQHVSRKDAFNSHDVLSPTNRSGSVHRSHSAHHERTFEERHKTPNGVWNEMFPKGTLVMYTDGSYLKRPPTSGIGIFVGPGHELNRSQRIRGPIQDNNYAEFIAVRTALQNALKNENYRDQKVVIRTDCLNVIEALQGTRPTAFVDVKSQVEFLSKQFPKGVHFQHVYAHAGDPGNEMADLFAGQASSKSQNSFGGGQRTRSASTARGRSRERNRLRSKSNDPSFIRSRSHSIHSRK | not soluble |
| MISASLQQRKTRTRRSMLFVPGANAAMVSNSFIYPADALMFDLEDSVALREKDTARRMVYHALQHPLYRDIETIVRVNALDSEWGVNDLEAVVRGGADVVRLPKTDTAQDVLDIEKEILRIEKACGREPGSTGLLAAIESPLGITRAVEIAHASERLIGIALGAEDYVRNLRTERSPEGTELLFARCSILQAARSAGIQAFDTVYSDANNEAGFLQEAAHIKQLGFDGKSLINPRQIDLLHNLYAPTQKEVDHARRVVEAAEAAAREGLGVVSLNGKMVDGPVIDRARLVLSRAELSGIREE | soluble |
| MISIKVLFFGEACQLVGKREEAIDFPEETDYEEIRKTILENYPALQKIEKVMMLAVDQEYANPGDRFELVRFTEIAVIPPLSGG | soluble |
| MISILRRGLLVLLAALPLLANAASTPSAHDLVQDTTTRLLADLAANKEKYKQSPNDFYNALNSIVGPVVDADGISRSIMTVKYSRKATPEQMVRFQENFKRSLMQFYGNALLEYNNQGITVSPAKDESGTRTSVDMQVKGNNGAIYPVSYTLEKINDEWKVRNVIINGINIGKLFRDQFADAMQRNGNNLDKTIDGWAGEVAKAKEVTEDAAQKAAQLEHHHHHH | soluble |
| MISIVGIGSGNRVEELTIKAYNTLKNSDIGIYPGNFIGEELKELFEDKTMFTGRDITSEKIKNIFHNNRDKNICLMVSGDPALYSGQFNTNLCLDEHIKWFNEHNYNYEMIPGLSSLSILCAKKSIDLTPFSKTQNVFITSIERLRDLKCFNYTELKSILSTKPVLALYQSLKEFDNIKSLLMEFYPPTTKVIFAQSLSWSNECIFETDLKTLNETESTTSQFNDQTLILVYPSTILTIK | not soluble |
| MISNNTRRVYRISFSFFEQYCLEHNLQSLPADPRSIISFIGHQKELLQASTGMQLSKQTLTTRIAAIRFYHIQAGFPTPTEHPQVIRVMRGLSRNHHRLVQDYDQQPLEHHHHHH | not soluble |
| MISPQEQQKQEIATTPSGTKENEKLVVPGVQVALENISTKSVLNAVNYKYAQLFHREQVSSAQSNTTSKQYIEERKTSNGTIGEVLRKFEKGRLLGKGGFAKVYQLTDIHTHQKYAGKIIPKNAIRKESAKQKLISEIRIHRELRHRHIVKFESCFEDQENVYIVLELCPNGSIMDMVRQRGRLTEYETRYFMIQILDAIRYMHRECLVIHRDLKLGNFFLDENMEVKIGDFGLAAQLSSDKERKRTICGTPNYIAPEILSGKQGHSFEVDIWSTGVVFYTMLVGKPPFETSDVKSTYKRIKENIYSIPESLDLSTSAIELIGSILNSDPAKRLSLDEIRSHPFFDAKIPRALSIHALKSTPVFEESELIERNKESSSYKKGRENRQQTVVGSSGLWNDVIQSISQDQRTPLQKLQQHIKSNAAKNNDHAEKLHQALEKHLQLNDNQSKKEEKLLESQEAHSKSTKGIFDKGLDTQSEDEERMVLNKVRDQLTSSFALLKNAEQSPYAFTSSLNTNDGTTSGSPSFQSPVNALTGGAWICKWLDYSKKYGLGYQTCLGSTGVCFNDGTQIILEKGQQNWIYYMKRTESHEERNENKWIKMTMEDYPSELQKKVKLLIHFRNYMLDHTPKGQEDPLISPESSFQNIDTSNETCGAKDATRPVYIKTWFRSPYAIIFRLSNRNIQVDFNDGTEVILSPEVHVVTYRGKDGRRNSYQQGHLPSLPELLKRLRYVMDLLQEMLNRKTS | soluble |
| MISSPHKLTGDIMTKRTKRTRRLFSAEFKLEAAQLVLDQNYSVTEAAQAMNVGKSTMDKWVRQLREERQGKTPKASPMTPEQIEIRELKKKLARLEEHNEILKKATALLMSDSLNNSLEHHHHHH | soluble |
| MITMNMNDYKNKRVPPDWCPGCGNFAQLSAITMALAELKIDPKDVVVASGIGCSSNMPEFLNTYGFHGLHGRLVPFAAGVKWANSKLTVIAYGGDGDGFFEGTQHFYHTAKRNVDITYMVSDNQVFGLTTGQASPTAPIGLKTKTTPDGNIETPFNPIAFALNAGATFVARAFSGDIKHLKDITVRAIKHKGFSFIDVISPCVTWNKENSYEYFRPRVYHLENNDVTNFDQAYKLAFEWGDHIPIGVFYEVERPTYEDLDEVLKEGPLVEQGIHKLTEDDLEEFA | not soluble |
| MITVFHSDKLTRQPFFQDLINYLDQHDHVILREIKKAFPNVTGIDKAIESYVQAGYIRRENKRYGINLPLVSSDQQLALDTMLFVDTCSAMYENILAVVFETQLTNQTNRVMIKEKTNITRDDLTLANYFYRLKRGEKPSAEQMDLYDLLGDVNQEYALKYMTTFLLKFTRKDFVMQKRPDIFVEALVTLGYLKQVEPTTYQLLMTLDKESLTFIAP | not soluble |
| MIVETMTYQEIADEFKKDWERSIRHKITDCFGMANKYRRYILKEGKTDKWIRFKPIEFTSPRGNNCVIQFVSKGWADYKRNGLIFVLYMYYYKSEGLYAVMIAGDNFDEFSFYTPHLFDRYRERKLKDISKPKLQTMFDFFKTNATSRFNRVNNDKYANSIFSVCPNGVTLGSEISDKIIENRTYITFEMLKSDQVQDEEKLGTALKAYLDKQL | not soluble |
| MIVIFVDFDYFFAQVEEVLNPQYKGKPLVVCVYSGRTKTSGAVATANYEARKLGVKAGMPIIKAMQIAPSAIYVPMRKPIYEAFSNRIMNLLNKHADKIEVASIDEAYLDVTNKVEGNFENGIELARKIKQEILEKEKITVTVGVAPNKILAKIIADKSKPNGLGVIRPTEVQDFLNELDIDEIPGIGSVLARRLNELGIQKLRDILSKNYNELEKITGKAKALYLLKLAQNKYSEPVENKSKIPHGRYLTLPYNTRDVKVILPYLKKAINEAYNKVNGIPMRITVIAIMEDLDILSKGKKFKHGISIDNAYKVAEDLLRELLVRDKRRNVRRIGVKLDNIIINKTNLSDFFDI | soluble |
| MIVLRDVAGSDESMYQALQSDLDLTDYLSRFCPYNSSVANYDTSKVCWFIIEEDTNCIGSIWLERDAQEPDTVILGIFISGKNSRGRGIGSYAIREAIRISKQRMPFRYVRLNVRRNNLRAIRCYEKCGFKVCGEGQKNAKNGAIIDYYRMIMKVED | soluble |
| MIYAAEEVRARFARRGLSFDPTVEEIVRGILEAVREEGDEALDRFSRDLDGYPVEEVPKRAWREAYEDLDEDLRDALETARERIEAFYREEARGGFLRAEGGGVLAQLVRPLERVGVYVPGGSAPLLSTLLMTVVPAKVAGVREVIVASPPKVHPGVLAAAWVAGADRLFAMGGAQAIAALAYGTGRVPRVDKIVGPGNRYVVAAKRLVYGTVGIDGLAGPTETMIIADGSASPRLLAADLLAQAEHGPDSEPWLLSPDRALLERVEAELSWQLQDLPRAEVARQALEKGGLVLTKDLEEAFALANLYAPEHLSLALSDPLPWLEKVQNAGGVFLGEGSPEALGDYIAGPSHVMPTSGTARFQGGLAVRDFLKVIPVVGLSEGAARELAKKGALLARAEGLEGHARSLDLRR | soluble |
| MIYAYIRVSTDKQTVENQRFEINRFAKQRDFQIDVWVEETVSGTRSAKDRKLGVLLKRIKKGDTLIVSEISRLGRRLMEVMSILNACMLKNVILLTVKEKYELGNNIQSQILAFAFSLSAQIERDLISQRTREGLARRIASGQKLGRPMGGHNSKYKLTGKEEKIKAMLEAGTSKAEMARKLKVSRNTLAAFLNRNRTGIPSN | not soluble |
| MIYTLENQHLKISLSNHGGELHSIKGKKDNTEFLWSGDEAYWKYHAPILFPIVGKVFNGKYTVDGITYELPQHGLARVRDFEMIEQTKNSISFELKYSEDTLKVYPFKFSLIIKYTLNDINLSIDYIVKNLDNKEMYFSIGAHPAFMCPIENDKFDDYYFEFNKKENASIMQLVGPGYFSKEEKPYLKDEHIINLSTDLFKNDALVFKNLKSNKISLKSKNHKKYLEFDFGEFPYLGLWTKDTGAPFVCIEPWFGHADFDGFNGEFKDKAAIQSLMPNKEFHCNYNISFFELEHHHHHH | soluble |
| MKALARFGKAFGGYKMIDVPQPMCGPEDVVIEIKAAAICGADMKHYNVDSGSDEFNSIRGHEFAGCIAQVGEKVKDWKVGQRVVSDNSGHVCGVCPACEQGDFLCCTEKVNLGLDNNTWGGGFSKYCLVPGEILKIHRHALWEIPDGVDYEDAAVLDPICNAYKSIAQQSKFLPGQDVVVIGTGPLGLFSVQMARIMGAVNIVVVGLQEDVAVRFPVAKELGATAVVNGSTEDVVARCQQICGKDNLGLVIECSGANIALKQAIEMLRPNGEVVRVGMGFKPLDFSINDITAWNKSIIGHMAYDSTSWRNAIRLLASGAIKVKPMITHRIGLSQWREGFDAMVDKTAIKVIMTYDFDE | soluble |
| MKAMKSLGADLDKALGRLSGGLYIITAKKGDVSSAMLASWVNQASFKPLGFSIAVAKDRAIESLMQVGDRFVLNVLEEGNYQPLMRHFLKRFAPGADRFEGVKTQPAENGAPILGDALAYMECEVVSRMDCGDHWAVYSTVYAGRVSKSEALTAVHHRKVGNHYLEHHHHHH | soluble |
| MKAQIIHSFGDSSVFQLEEVSKPKLLPGHVLIDVKATSVNPIDTKMRSGAVSAVAPEFPAILHGDVAGIVIEVGEGVSKFKCGDEVYGCAGGFKETGGALAEFMLADARLIAHKPNNITMEEAAALPLVAITAWESLFDRANIKSGQNVLIHGATGGVGHVAIQLAKWAGANVFTTASQQNKMEIAHRLGADVAINYKEESVQESVQEYVQKHTNGNGFEVIFDTVGGKNLDNSFEAAAVNGTVVTIAARSTHDLSPLHAKGLSLHVTFMALKILHTDKRNDCGEILTKITKIVEEGKLRPLLDSKSFTFDEVAQAHEYLESNKAIGKIVLKNVW | soluble |
| MKARKRKEQTFHEYFKEWVDLYKVGAIRSITLQKYYVTEQKIQELVPDLKIKDLDRYTYQQLLNSYAVTHEKQTTMDFHHHLKGAILDAVDEGVISQNPTRKIVIKGKTPRPKKAKFLNQFEVQALLKELNLKEDINWDWFILLIIKTGLRFSEALALTPSDFDFSKQKIIINKTWDYKMVTGSFQPTKNESSNRKIQIDWQLAMQFSQLIKMKDPDKPIFVKSRVFNSTINNRLKVLCENANIPTITVHSLRHTHASLLLFAGVSIASVANRLGHSSMTTTQETYLHIIQELENQDNDKIIRHLSMLM | not soluble |
| MKATSEELAIFVSVVESGSFSRAAEQLGQANSAVSRAVKKLEMKLGVSLLNRTTRQLSLTEEGERYFRRVQSILQEMAAAESEIMETRNTPRGLLRIDAATPVVLHFLMPLIKPFRERYPEVTLSLVSSETIINLIERKVDVAIRAGTLTDSSLRARPLFNSYRKIIASPDYISRYGKPETIDDLKQHVCLGFTEPASLNTWPIACSDGQLHEVKYGLSSNSGETLKQLCLSGNGIACLSDYMIDKEIARGELVELMADKVLPVEMPFSAVYYSDRAVSTRIRAFIDFLSEHVKTAPGGVMPIS | not soluble |
